Experimental data published in article PMC6642015 (Cell chemical biology, 2019).
Substitutions are numbered along the chain they refer to.

B1: human methylmalonyl-CoA mutase (enzyme, UniProt P22033 33-750, looked up)
chain: LHQQQPLHPEWAALAKKQLKGKNPEDLIWHTPEGISIKPLYSKRDTMDLPEELPGVKPFTRGPYPTMYTFRPWTIRQYAGFSTVEESNKFYKDNIKAGQQGLSVAFDLATHRGYDSDNPRVRGDVGMAGVAIDTVEDTKILFDGIPLEKMSVSMTMNGAVIPVLANFIVTGEEQGVPKEKLTGTIQNDILKEFMVRNTYIFPPEPSMKIIADIFEYTAKHMPKFNSISISGYHMQEAGADAILELAYTLADGLEYSRTGLQAGLTIDEFAPRLSFFWGIGMNFYMEIAKMRAGRRLWAHLIEKMFQPKNSKSLLLRAHCQTSGWSLTEQDPYNNIVRTAIEAMAAVFGGTQSLHTNSFDEALGLPTVKSARIARNTQIIIQEESGIPKVADPWGGSYMMECLTNDVYDAALKLINEIEEMGGMAKAVAEGIPKLRIEECAARRQARIDSGSEVIVGVNKYQLEKEDAVEVLAIDNTSVRNRQIEKLKKIKSSRDQALAERCLAALTECAASGDGNILALAVDASRARCTVGEITDALKKVFGEHKANDRMVSGAYRQEFGESKEITSAIKRVHKFMEREGRRPRLLVAKMGQDGHDRGAKVIATGFADLGFDVDIGPLFQTPREVAQQAVDADVHAVGISTLAAGHKTLVPELIKELNSLGRPDILVMCGGVIPPQDYEFLFEVGVSNVFGPGTRIPKAAVQVLDDIEKCLEKKQQSV

Legend:
[1] = biological target: T1, human MCM-CblA complex (Homo sapiens, UniProt Q8IVH4); assay: gel filtration and negative stain EM; type: binding; settings: MCM 25 μM, CblA 50 μM, GMPPCP 500 μM
T1 sequence (Q8IVH4 66-418 limits assumed): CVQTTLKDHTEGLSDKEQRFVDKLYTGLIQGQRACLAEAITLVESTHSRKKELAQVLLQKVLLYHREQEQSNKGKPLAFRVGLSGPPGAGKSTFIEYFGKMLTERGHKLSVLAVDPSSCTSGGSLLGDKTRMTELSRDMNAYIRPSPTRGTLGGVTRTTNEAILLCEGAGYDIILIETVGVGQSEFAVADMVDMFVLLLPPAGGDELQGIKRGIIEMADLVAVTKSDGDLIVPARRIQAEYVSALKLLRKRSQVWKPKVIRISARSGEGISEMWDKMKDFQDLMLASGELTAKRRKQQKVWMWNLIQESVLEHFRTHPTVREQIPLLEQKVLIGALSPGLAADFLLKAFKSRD
T1 sequence (P22033 33-750 partner): B1 chain

[2] = biological target: T2, human CblA, wild type (human, UniProt Q8IVH4 72-418); assay: SEC-MALS
T2 sequence: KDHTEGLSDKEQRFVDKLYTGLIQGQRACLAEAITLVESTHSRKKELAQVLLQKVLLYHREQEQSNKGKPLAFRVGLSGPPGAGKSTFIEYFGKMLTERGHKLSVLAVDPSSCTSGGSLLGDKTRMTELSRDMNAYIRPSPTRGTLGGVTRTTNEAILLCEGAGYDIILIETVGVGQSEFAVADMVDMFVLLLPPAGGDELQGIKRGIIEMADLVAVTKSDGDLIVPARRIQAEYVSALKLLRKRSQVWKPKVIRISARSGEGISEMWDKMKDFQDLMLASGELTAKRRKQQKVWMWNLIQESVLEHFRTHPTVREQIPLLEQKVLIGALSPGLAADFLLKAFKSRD

[3] = biological target: T3, human CblA G274S (human, UniProt Q8IVH4 72-418, G274S); assay: cell-based or functional assay
T3 sequence: T2 sequence with G203S

[4] = biological target: T4, human CblA Q273A (human, UniProt Q8IVH4 72-418, Q273A); assay: cell-based or functional assay
T4 sequence: T2 sequence with Q202A

[5] = biological target: T5, human CblA G278D (human, UniProt Q8IVH4 72-418, G278D); assay: cell-based or functional assay
T5 sequence: T2 sequence with G207D

[6] = biological target: T6, human CblA K276E (human, UniProt Q8IVH4 72-418, K276E); assay: cell-based or functional assay
T6 sequence: T2 sequence with K205E

[7] = biological target: T7, human CblA K276A (human, UniProt Q8IVH4 72-418, K276A); assay: cell-based or functional assay
T7 sequence: T2 sequence with K205A

[8] = biological target: T2, human CblA, wild type; assay: cell-based or functional assay

Row | Molecule | gel filtration and negative stain EM; block of AdoCbl transfer [1] | stoichiometry N [2] | GTPase activity of CblA in the presence of MCM (GAP activation) [3] [min⁻¹] | GTPase activity of CblA in the presence of MCM (GAP activation) [4] [min⁻¹] | GTPase activity of CblA in the presence of MCM (GAP activation) [5] [min⁻¹] | GTPase activity of CblA in the presence of MCM (GAP activation) [6] [min⁻¹] | GTPase activity of CblA in the presence of MCM (GAP activation) [7] [min⁻¹] | GTPase activity of CblA in the presence of MCM (GAP activation) [8] [min⁻¹]
1 | Nc1nc2c(ncn2[C@@H]2O[C@H](COP(=O)(O)OP(=O)(O)CP(=O)(O)O)[C@@H](O)[C@H]2O)c(=O)[nH]1 [GMPPCP] | higher order oligomeric peak seen in the presence of GMPPCP | – | – | – | – | – | – | –
2 | B1 | – | 2 MCM (dimer) per CblA (dimer) | 1.04 | 0.86 | 3.07 | 0.92 | 2.98 | 2.78
